Broadly, the IC50 is the concentration at which inhibition is half-maximal. One may read the EC50 as the concentration at which the effect is half-maximal. A higher EC50 goes with weaker potency. As usually defined, the Kd is the free concentration of one partner at which half of the binding sites on the other are occupied at equilibrium, for simple one-to-one binding. A lower Kd goes with a tighter complex. By koff is commonly meant a measure of how fast the partners let go of each other. A lower koff goes with a long-lived complex. The kon is a measure of how fast the partners come together. Low readings indicate slower complex formation, high ones faster complex formation.

This note sets out measurements from US20210079087A1 (REMD BIOTHERAPEUTICS, published 2021).

Assay [1] addresses T1, human IL-17A (human, UniProt Q16552 24-155). The assay is described as follows: cell-based or functional assay.
Assay [2] addresses T1, human IL-17A. The assay is described as follows: cell-based or functional assay. This is another data set of the same source.
Assay [3] has as its target T1, human IL-17A. The assay is described as follows: IL-17A/IL-17R blocking ELISA. (An ELISA detects its analyte on a solid surface through an enzyme-linked reagent.)
The target of a further assay is T2, cyno primate IL-17A (cyno primate, UniProt A0A2K5TTB0 24-155).
T2 construct: Antigen of the primate crossreactivity ELISA; construct not described; also called Cy IL-17
T2 sequence (A0A2K5TTB0 entry or part of it): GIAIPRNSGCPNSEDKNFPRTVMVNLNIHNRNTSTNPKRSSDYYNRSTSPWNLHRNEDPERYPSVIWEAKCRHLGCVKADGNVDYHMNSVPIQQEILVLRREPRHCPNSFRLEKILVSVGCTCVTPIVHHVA
The assay is described as follows: ELISA, binding to cyno IL-17A.

For assay [4], the target named is T1, human IL-17A. The assay is described as follows: ELISA, binding to human IL-17A.
A further assay addresses T3, murine IL-17A (murine, UniProt Q62386 26-158, limits assumed).
T3 construct: Antigen of the murine IL-17A crossreactivity ELISA; construct not described; also called mouse IL-17A
T3 sequence (looked up): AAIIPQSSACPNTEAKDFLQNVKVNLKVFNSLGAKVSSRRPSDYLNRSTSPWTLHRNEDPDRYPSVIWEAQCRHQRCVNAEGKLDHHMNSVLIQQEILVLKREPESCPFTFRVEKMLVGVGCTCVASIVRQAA
The assay is described as follows: murine IL-17A crossreactivity ELISA.

Assay [5] concerns the target T1, human IL-17A. The assay is described as follows: SPR, Biacore 8k; antibody amine-coupled to the chip, IL-17A as analyte. As for the experimental part: (§1) The recombinant IgGs secreted to the medium and were purified using protein A affinity chromatography. […] Antibodies were immobilized on the sensor chip through amine coupling method. […] The data of dissociation (kd) and association (ka) rate constants were obtained using Biacore 8k evaluation software. The equilibrium dissociation constants (KD) were calculated from the ratio of kd over ka.
Background: SPR reads the build-up and loss of mass on a sensor chip optically.

The target in assay [6] is T1, human IL-17A. The assay is described as follows: SPR, Biacore T200; antibody amine-coupled to the chip, IL-17A as analyte. As for the experimental part:
The data of dissociation (kd) and association (kₐ) rate constants were obtained using Biacore T200 evaluation software. The equilibrium dissociation constants (KD) were calculated from the ratio of kd over kₐ.

Assay [7] addresses T1, human IL-17A. The assay is described as follows: SPR, Biacore 8k; antibody amine-coupled to the chip, IL-17A as analyte (second, unlabelled row). As for the experimental part: as §1
For assay [8], the target named is T1, human IL-17A. The assay is described as follows: SPR, Biacore 8k; antibody amine-coupled to the chip, IL-17A as analyte; first of two Chimeric Ab rows (ka 1.94E+06). As for the experimental part:
as §1

In assay [9] the target is T1, human IL-17A. The assay is described as follows: SPR, Biacore 8k; antibody amine-coupled to the chip, IL-17A as analyte (second, unlabelled row); second, unlabelled row under Chimeric Ab. The procedure: as §1

T1 sequence (Q16552 24-155 limits assumed): as the sequence (A0A2K5TTB0 entry or part of it) above, with A3T, S8P, S34N, V77I, K78N, R104P counted along it

B1: 23A4D8 (antibody, mouse IgG2a, V domains shown)
VH: EVQLQQSGPELVKPGASVKISCKASGFTFTDYYMNWMKQSHGKSLEWIGDINPKNGGTIFNQNFRGKATLTVDKSSSTAYMELRSLTSEDSAVYYCARSILTGPFYFDYWGQGTTLTVSS
VL: DIVLTQSPASLAVSLGQRAIISCKASQSVSFAGTGLMHWYQQKSGQQPKLLISRASNLEAGVPTRFSGSGSRTDFTLNIHPVEEDDAATYYCQQTMEYPTFGGGTKLEIK
notes: also called Murine 23A4D8; parental
Turning to B1, the “IC50 (nM), IL6 production by TNFα-primed NIH3T3 cells stimulated with human IL-17A” value (“IC50 (nM), IL6 production” for short) in the assay with human IL-17A [1] was determined as 0.581 nM. Also, the “IC50 (nM), NIH3T3 in vitro functional assay described in Example 1 (IL-6 production)” value (from here on “IC50 (nM), NIH3T3”) with human IL-17A [2] was 0.703 nM. The molecule also showed an IC50 with human IL-17A [3] of 2.07 nM. The response with cyno primate IL-17A was half-maximal at 0.004 nM (EC50). For the same molecule, it took 0.08 nM to reach a half-maximal effect with human IL-17A [4] (EC50). Also, in the assay with murine IL-17A, the binding result is listed as “no binding”. Further, in the assay with human IL-17A [5], binding was put at a Kd of 0.00489 nM, the koff was 1.22e-05 s⁻¹ and the kon was 2.5e+06 M⁻¹ s⁻¹.

B2: chimeric IgG4 (murine-human chimeric antibody derived from murine antibody A4 and human IgG4) (antibody, V domains shown)
VH: EVQLQQSGPELVKPGASVKISCKASGFTFTDYYMNWMKQSHGKSLEWIGDINPKNGGTIFNQNFRGKATLTVDKSSSTAYMELRSLTSEDSAVYYCARSILTGPFYFDYWGQGTTLTVSS
VL: DIVLTQSPASLAVSLGQRAIISCKASQSVSFAGTGLMHWYQQKSGQQPKLLISRASNLEAGVPTRFSGSGSRTDFTLNIHPVEEDDAATYYCQQTMEYPTFGGGTKLEIKR
notes: also called Chimeric Ab
Regarding B2, the figures for the Kd with human IL-17A [5], with human IL-17A [6] and with human IL-17A [7] were 0.00515 nM, at most 0.00493 nM and 0.00439 nM, respectively. The results for the kon with human IL-17A [5], with human IL-17A [6] and in the assay with human IL-17A [9] were 1.94e+06 M⁻¹ s⁻¹, 2.03e+06 M⁻¹ s⁻¹ and 2.28e+06 M⁻¹ s⁻¹, respectively. In addition, the figures for the koff with human IL-17A [6], in the assay with human IL-17A [7] and in the assay with human IL-17A [8] were at most 1e-05 s⁻¹, 1e-05 s⁻¹ and at most 1e-05 s⁻¹, respectively.

B3: 4H11C7 (antibody, mouse IgG1, V domains shown)
VH: QVTLKESGPGILQPSQTLSLTCSFSGFSLNTFGMGVDWIRQPSGKGLEWLAHIWWDDDKYYNPALESRLTISKDASKNQVFLKIANVDTADTATYYCSRRELGPYFFDYWGQGTTLTVSS
VL: GVLMTQTPLSLPVSLGDQASISCRSSQSIVHSNGNTYLEWYLQKPGQSPKLLIYKVSNRFSGVPDRFSGSGSGTDFTLKINRVEAEDLGVYYCFQGSHFPYTFGGGTKLEID
notes: amino acids 1-19 are stated as the leader; also called A1
For B3, in the assay with human IL-17A [1], the “IC50 (nM), IL6 production” value is 0.953 nM. 2.44 nM corresponded to half-maximal inhibition in the assay with human IL-17A [3] (IC50). Moreover, the EC50 with cyno primate IL-17A was found to be 0.016 nM; in the assay with human IL-17A [4], 0.19 nM. In addition, the binding result with murine IL-17A was “no binding”.

B4: 22E2G4 (antibody, mouse IgG1, V domains shown)
VH: QVQLQQPGAELVMPGTSVRLSCKASGYTFTSYWMHWVKQRPGQGLEWIGEIDPSDTYTNYNPKFKGKATLTVDKSSSTAYMQFTSLTSEDSAVYYCARSGIYYDYYEDYWGQGTTLTVSS
VL: DVVMTQTPLSLPVSLGDQASISCRSSQILLHSNGNTYLHWYLQKPGQSPKLLIYKVSNRFSGVPDRFSGSGSGTDFTLKISRVEAEDLGVYFCSQSVHVPTFGGGTKLEIK
notes: amino acids 1-19 are stated as the leader; also called A3
Consider B4, for which, in the assay with human IL-17A [1], the “IC50 (nM), IL6 production” value stood at 0.534 nM. In addition, the IC50 in the assay with human IL-17A [3] stood at 3.04 nM. In addition, the concentration giving a half-maximal response (EC50) amounted to 0.013 nM with cyno primate IL-17A and 0.15 nM with human IL-17A [4]. Besides, the binding result in the assay with murine IL-17A was “no binding”.

B5: 26G11B11 (antibody, mouse IgG1, V domains shown)
VH: QVQLQQPGAELVMPGASVKLSCKAAGYTFTSYWMHWVKQRPGQGLEWIGEIDPSDSYTNYNQKFKGKATLTVDKSSSTAYMQLSSLTSEDSAVYYCARSGIYYDYYEDYWGQGTTLTVSS
VL: DVVMTQTPLSLPVSLGDQASISCRSSQSLVHSNGNTYLHWYLQKPGQSPKLLIYKVSNRFSGVPDRFSGSGSGTDFTLKISRVEAEDLGVYFCSQSIHVPTFGGGTKLEIK
notes: amino acids 1-19 are stated as the leader; also called A6
B5: the “IC50 (nM), IL6 production” value in the assay with human IL-17A [1] came to 0.544 nM. The molecule also yielded an IC50 with human IL-17A [3] of 2.19 nM. For the same molecule, the EC50 was 0.012 nM with cyno primate IL-17A and 0.12 nM in the assay with human IL-17A [4]. Besides, the binding result with murine IL-17A is recorded as “no binding”.

B6: 24F11E4 (antibody, mouse IgG1, V domains shown)
VH: QVQLQQPGAELVMPGASVRLSCKASGYTFTNYWIHWVKQRPGQGLEWIGEIDPSDTFTNYSPKFKGKATLTVDKSSSTAYMQLTGLTSEDSAVYFCARSGIYYDYYEDYWGQGTTLTVSS
VL: DVVMTQTPLSLPVSLGDQVSISCRSSQILLHSNGNTYLHWYLQKPGQSPKLLIYKVSNRFSGVPDRFSGSGSGTDFTLKISRVEADDLGVYFCSQSVHVPTFGGGTKLEIK
notes: amino acids 1-19 are stated as the leader; also called A5
As for B6, the “IC50 (nM), IL6 production” value in the assay with human IL-17A [1] was determined as 0.138 nM. Moreover, the IC50 with human IL-17A [3] worked out at 2.15 nM. The EC50 in the assay with cyno primate IL-17A was determined as 0.01 nM; in the assay with human IL-17A [4], 0.16 nM. The binding result with murine IL-17A was “no binding”.

B7: 8A5G4 (antibody, V domains shown)
VH: QVELKESGPGLVAPSQSLSITCTVSGFSLTSYGVYWVRQPPGKGLEWLVVIWSDGTTTYNSALKSRLSISKDNSKSQVFLKMNSLQTDDTAMYYCARQGDNYSYAVDYWGQGTAVTVSS
VL: DVVMIQIPLSLPVSLGDQASISCRSSQSLVHSNGNTYLHWYLQKPGQSPKLLIYKVFNRFSGVPDRFSGSGSGTDFTLKISRVEAEDLGVYFCSQSTHAPLTFGAGTKLELK
notes: amino acids 1-19 are stated as the leader; also called A2
Regarding B7, in the assay with human IL-17A [1], the “IC50 (nM), IL6 production” value came to 0.47 nM. Besides, the IC50 in the assay with human IL-17A [3] stood at 1.65 nM. In addition, the EC50 came out at 0.008 nM with cyno primate IL-17A and 0.1 nM in the assay with human IL-17A [4]. Moreover, the binding result in the assay with murine IL-17A is “no binding”.

B8: REMD 155.1 (antibody, human IgG4 S228P, kappa, V domains shown)
VH: QVQLVQSGAEVKKPGASVKVSCKASGFTFTDYYMNWVRQAPGQGLEWMGDINPKNGGTIFNQNFRGRVTMTRDTSISTAYMELSRLRSDDTAVYYCARSILTGPFYFDYWGQGTLVTVSS
VL: DIVMTQSPDSLAVSLGERATINCKASQSVSFAGTGLMHWYQQKPGQQPKLLIYRASNLEAGVPDRFSGSGSGTDFTLTISSLQAEDVAVYYCQQTMEYPTFGGGTKLEIKR
notes: Humanized antibody derived from 23A4D8; also called IgG 2 (H1/L2); H1 + L2
Turning to B8, the “IC50 (nM), NIH3T3” value with human IL-17A [2] is 0.995 nM. For the same molecule, in the assay with human IL-17A [5], the Kd was at most 0.00361 nM, the koff was at most 1e-05 s⁻¹ and the kon was found to be 2.77e+06 M⁻¹ s⁻¹.

B9: REMD 155.2 (antibody, human IgG4 S228P, kappa, V domains shown)
VH: QVQLVQSGAEVKKPGASVKVSCKASGFTFTDYYMNWVRQAPGQGLEWMGDINPKNGGTIFNQNFRGRVTMTRDTSISTAYMELSRLRSDDTAVYYCARSILTGPFYFDYWGQGTLVTVSS
VL: DIVLTQSPDSLAVSLGERATINCKASQSVSFAGTGLMHWYQQKPGQQPKLLIYRASNLEAGVPDRFSGSGSGTDFTLTISSVQAEDVAVYYCQQTMEYPTFGGGTKLEIKR
notes: Humanized antibody derived from 23A4D8; also called IgG 4 (H1/L4); H1 + L4
For B9, the “IC50 (nM), NIH3T3” value with human IL-17A [2] was found to be 0.975 nM. In the assay with human IL-17A [5], this molecule registered a dissociation constant (Kd) of at most 0.00346 nM, a koff of at most 1e-05 s⁻¹ and a kon of 2.89e+06 M⁻¹ s⁻¹.

B10: REMD 155 (antibody, human IgG4 S228P, kappa, V domains shown)
VH: QVQLVQSGAEVKKPGASVKVSCKASGFTFTDYYMNWVRQAPGQGLEWMGDINPKNGGTIFNQNFRGRVTMTRDTSISTAYMELSRLRSDDTAVYYCARSILTGPFYFDYWGQGTLVTVSS
VL: DIVMTQSPDSLAVSLGERATINCKASQSVSFAGTGLMHWYQQKPGQPPKLLIYRASNLEAGVPDRFSGSGSGTDFTLTISSLQAEDVAVYYCQQTMEYPTFGGGTKLEIKR
notes: Humanized antibody derived from 23A4D8; also called IgG 1 (H1/L1); H1 + L1
Turning to B10, the “IC50 (nM), NIH3T3” value with human IL-17A [2] was determined as 0.88 nM. In the assay with human IL-17A [5], binding was put at a Kd of 0.00552 nM, the koff stood at 1.35e-05 s⁻¹ and the kon is 2.45e+06 M⁻¹ s⁻¹.
